Data from PMC2883962.

Biological target: prostate apoptosis response protein 4 (Par-4), endogenous in native colon cancer cells (human (endogenous in HT29 and SW480)) (UniProt Q96IZ0)
Test: co-IP; Par-4 immunoprecipitated from lysates of native HT29 cells treated for 24 h with vehicle or 12.5 or 25 μM ISC-4 (AKT inhibitor); immunoprecipitates immunoblotted with PKA, NFκB p50 and 14-3-3 antibodies

Chain of 14-3-3 (P63104 whole entry): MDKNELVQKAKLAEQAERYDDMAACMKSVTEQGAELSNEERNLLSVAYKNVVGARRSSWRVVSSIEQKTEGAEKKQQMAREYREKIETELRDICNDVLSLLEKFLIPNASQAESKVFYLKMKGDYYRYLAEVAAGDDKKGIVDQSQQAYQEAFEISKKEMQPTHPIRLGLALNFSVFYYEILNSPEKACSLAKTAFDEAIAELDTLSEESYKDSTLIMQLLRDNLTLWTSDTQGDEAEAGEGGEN
Chain of UniProt Q96IZ0 (Q96IZ0 whole entry): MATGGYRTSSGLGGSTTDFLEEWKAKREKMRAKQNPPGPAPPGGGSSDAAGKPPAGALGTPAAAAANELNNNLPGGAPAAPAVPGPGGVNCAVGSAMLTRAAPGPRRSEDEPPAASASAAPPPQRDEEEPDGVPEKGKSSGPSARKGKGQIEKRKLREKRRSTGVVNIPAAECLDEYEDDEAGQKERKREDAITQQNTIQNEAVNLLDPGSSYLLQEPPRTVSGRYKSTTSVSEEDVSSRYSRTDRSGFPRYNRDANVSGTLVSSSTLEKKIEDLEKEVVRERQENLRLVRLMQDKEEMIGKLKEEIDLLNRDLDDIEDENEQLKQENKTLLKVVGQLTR

- fold decrease of Par-4 binding with ISC-4 against vehicle: 3 fold
Substance: 14-3-3 (from UniProt P63104 1-245) (natural protein)
